Assay results taken from patent US20020168748.

T1: peptide GKKKKKKSKTKCVIM (C-terminus of K-ras4B)
T1 chain: GKKKKKKSKTKCVIM

T2: CaRho1 (Candida Rho1-like GTPase)
T2 chain: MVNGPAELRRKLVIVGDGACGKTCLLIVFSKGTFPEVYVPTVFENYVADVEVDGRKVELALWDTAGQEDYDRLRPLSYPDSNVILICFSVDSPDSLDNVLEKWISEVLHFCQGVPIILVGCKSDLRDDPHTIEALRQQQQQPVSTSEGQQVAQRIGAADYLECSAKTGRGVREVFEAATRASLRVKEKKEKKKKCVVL

T3: peptide RVKEKKEKKKKCVVL (C-terminus of CaRho1)
T3 chain: RVKEKKEKKKKCVVL

T4: peptide GCVLL
T4 chain: GCVLL

T5: peptide LQARRGKKKSGCLVL (C-terminus of huRhoA)
T5 chain: LQARRGKKKSGCLVL


Tests used:
[1] = biological target: 1,3-β-glucan synthase (GS) complex, P38631
[2] = biological target: T1, peptide GKKKKKKSKTKCVIM (C-terminus of …)
[3] = biological target: H-RasCVLL, P01112
[4] = biological target: T2, CaRho1 (Candida Rho1-like GTPase)
[5] = biological target: human RhoA, P61586
[6] = biological target: T3, peptide RVKEKKEKKKKCVVL (C-terminus of …)
[7] = biological target: T4, peptide GCVLL
[8] = biological target: T5, peptide LQARRGKKKSGCLVL (C-terminus of …)

Chain of human RhoA, P61586 (P61586 whole entry): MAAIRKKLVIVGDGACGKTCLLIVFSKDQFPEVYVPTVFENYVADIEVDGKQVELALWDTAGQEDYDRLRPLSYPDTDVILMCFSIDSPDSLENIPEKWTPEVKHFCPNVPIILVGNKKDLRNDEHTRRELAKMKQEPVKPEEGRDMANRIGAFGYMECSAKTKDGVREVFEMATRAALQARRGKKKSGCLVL
Chain of H-RasCVLL, P01112 (P01112 whole entry, looked up): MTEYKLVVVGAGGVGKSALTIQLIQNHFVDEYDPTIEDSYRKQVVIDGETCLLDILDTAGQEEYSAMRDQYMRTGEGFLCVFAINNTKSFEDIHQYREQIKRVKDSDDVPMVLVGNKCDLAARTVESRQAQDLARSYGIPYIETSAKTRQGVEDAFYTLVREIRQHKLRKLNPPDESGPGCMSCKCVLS
Chain of 1,3-β-glucan synthase (GS) complex, P38631 (P38631 whole entry, looked up, one chain of several): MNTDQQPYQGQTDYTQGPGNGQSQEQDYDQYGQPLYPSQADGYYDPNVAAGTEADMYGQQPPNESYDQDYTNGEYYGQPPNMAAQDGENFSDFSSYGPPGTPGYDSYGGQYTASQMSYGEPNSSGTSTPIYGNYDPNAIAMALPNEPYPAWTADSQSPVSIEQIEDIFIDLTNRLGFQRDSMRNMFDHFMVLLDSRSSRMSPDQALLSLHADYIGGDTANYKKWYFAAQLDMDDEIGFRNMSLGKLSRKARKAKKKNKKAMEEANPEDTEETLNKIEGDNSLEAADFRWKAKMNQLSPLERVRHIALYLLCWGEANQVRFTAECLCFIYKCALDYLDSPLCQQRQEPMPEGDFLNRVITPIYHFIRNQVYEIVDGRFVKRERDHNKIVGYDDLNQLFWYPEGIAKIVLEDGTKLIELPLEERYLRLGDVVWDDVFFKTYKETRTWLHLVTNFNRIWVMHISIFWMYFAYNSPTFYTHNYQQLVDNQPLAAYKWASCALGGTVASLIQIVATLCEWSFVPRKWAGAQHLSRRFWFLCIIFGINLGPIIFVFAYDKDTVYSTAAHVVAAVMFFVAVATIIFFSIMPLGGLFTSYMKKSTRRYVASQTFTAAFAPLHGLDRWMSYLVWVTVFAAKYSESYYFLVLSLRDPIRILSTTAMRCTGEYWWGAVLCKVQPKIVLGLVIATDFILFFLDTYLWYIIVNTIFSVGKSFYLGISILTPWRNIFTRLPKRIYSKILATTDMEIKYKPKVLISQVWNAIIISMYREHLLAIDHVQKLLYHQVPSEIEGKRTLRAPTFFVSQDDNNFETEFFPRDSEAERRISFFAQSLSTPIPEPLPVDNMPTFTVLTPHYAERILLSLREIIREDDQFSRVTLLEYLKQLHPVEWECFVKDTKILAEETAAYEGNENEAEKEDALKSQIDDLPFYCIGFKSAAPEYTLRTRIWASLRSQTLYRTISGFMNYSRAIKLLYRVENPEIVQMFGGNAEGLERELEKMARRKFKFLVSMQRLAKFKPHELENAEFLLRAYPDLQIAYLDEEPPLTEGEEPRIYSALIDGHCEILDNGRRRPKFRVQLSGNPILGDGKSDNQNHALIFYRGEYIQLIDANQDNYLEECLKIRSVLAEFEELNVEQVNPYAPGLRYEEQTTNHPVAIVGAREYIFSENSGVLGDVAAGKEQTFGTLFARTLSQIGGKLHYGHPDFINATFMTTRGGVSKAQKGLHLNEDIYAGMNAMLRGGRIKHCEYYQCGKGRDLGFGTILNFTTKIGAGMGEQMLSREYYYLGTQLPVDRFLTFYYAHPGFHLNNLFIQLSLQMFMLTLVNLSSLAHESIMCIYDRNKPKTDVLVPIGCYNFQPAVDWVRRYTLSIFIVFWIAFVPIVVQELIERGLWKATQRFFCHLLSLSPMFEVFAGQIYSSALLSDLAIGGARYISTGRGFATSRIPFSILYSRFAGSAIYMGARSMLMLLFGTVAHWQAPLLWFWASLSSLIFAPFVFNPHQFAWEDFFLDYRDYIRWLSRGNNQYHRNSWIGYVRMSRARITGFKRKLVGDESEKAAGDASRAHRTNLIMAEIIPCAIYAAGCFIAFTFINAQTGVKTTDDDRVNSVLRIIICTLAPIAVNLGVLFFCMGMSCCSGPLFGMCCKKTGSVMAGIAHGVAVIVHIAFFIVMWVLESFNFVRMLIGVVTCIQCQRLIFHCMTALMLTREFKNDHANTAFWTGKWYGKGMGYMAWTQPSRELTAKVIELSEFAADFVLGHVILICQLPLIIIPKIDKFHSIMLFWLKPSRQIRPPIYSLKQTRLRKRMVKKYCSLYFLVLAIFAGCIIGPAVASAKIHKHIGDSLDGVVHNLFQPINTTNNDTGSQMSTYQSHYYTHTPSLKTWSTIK

Protein	GS activity in rho1-3 membrane fractions at 37° C. [1]	GS activity in rho1-3 membranes complemented with GST-Rho1 [1]	prenylation of the peptide [2]	Km [3]	Km [4]	Km [5]	prenylation of the peptide [6]	prenylation of the peptide [7]	prenylation of the peptide [8]
Recombinant glutathione-S-transferase (GST)-Rho1, preloaded with GTPγS (protein) MSQQVGNSIRRKLVIVGDGACGKTCLLIVFSKGQFPEVYVPTVFENYVADVEVDGRRVELALWDTAGQEDYDRLRPLSYPDSNVVLICFSIDLPDSLENVQEKWIAEVLHFCQGVPIILVGCKVDLRNDPQTIEQLRQEGQQPVTSQEGQSVADQIGATGYYECSAKTGYGVREVFEAATRASLMGKSKTNGKAKKNTTEKKKKKCVLL	GS activity was restored fully by the addition of GTPγS-bound GST-Rho1	–	–	–	–	–	–	–	–
Recombinant glutathione-S-transferase (GST)-Rho1, preloaded with GDP (protein) MSQQVGNSIRRKLVIVGDGACGKTCLLIVFSKGQFPEVYVPTVFENYVADVEVDGRRVELALWDTAGQEDYDRLRPLSYPDSNVVLICFSIDLPDSLENVQEKWIAEVLHFCQGVPIILVGCKVDLRNDPQTIEQLRQEGQQPVTSQEGQSVADQIGATGYYECSAKTGYGVREVFEAATRASLMGKSKTNGKAKKNTTEKKKKKCVLL	–	GTPγS could be replaced with GTP, but not GDP	–	–	–	–	–	–	–
Candida GGTase (CaGGTase), geranylgeranyl protein transferase I purified from Candida cells (protein) chain 1: MTDSKYDYSDITPVDINTEEPQICQILYDEDYKQIMGLLLALMKAEEYSERALHITELGINELASHYTIWIYRFNILKNLPNRNLYDELDWCEEIALDNEKNYQIWNYRQLIIGRIMELNNNDFDPYREFLILEAMLSSDPKNHHVWSYRKWLVDTFDLHNDAKELSFVDKVIDTDLKNNSAWSHRFFLLFSKKHLATDNTIDEELNYVKDKIVKCPQNPSTWNYLLGIHERFDRSITQLEEFSLQFVDLEKDQVTSSFALETLAKIYTQQKKYNEARTVYDLLKSKYDPIRSNFWDYQISKLTSV chain 2: MNQLLINKHEKFFNRCLIGLPSTAQSEDSNKLAIIYFCLHGLQLIQKFQFTNQELIYYRNFIINQFMIENNQIISFRSTHYFQKTNQKYDCPNLSSTLFALYNLLILKSPYHTIINRKKIMNFLCKCQVKDGINKGGFVPTLYYDEENGDYKQYGEPDLRVCYMALLIRHLMKYDDNNNNNNREDSNETDIDLISLQQFILDRININGGFSSTIMDESHLGFTFCAIASLKLLNYPLEKLKSTKEWLIHRQVDYPENLYPKDGNGDNYEYYRNIDIGGFNGRENKLSDTCYSWWCTGSLYNIDVNFIKLVDLNKAEDYLLNKTQNQLFGGFGRDPDSTPDPMHSYLALASLSLWNHEKFALQEINPILTITKELYQFFKEEIKY	–	–	+	NS*	250 µM	NS	+	–	–
S. cerevisiae GGTase (ScGGTase) (protein) chain 1: MEEYDYSDVKPLPIETDLQDELCRIMYTEDYKRLMGLARALISLNELSPRALQLTAEIIDVAPAFYTIWNYRFNIVRHMMSESEDTVLYLNKELDWLDEVTLNNPKNYQIWSYRQSLLKLHPSPSFKRELPILKLMIDDDSKNYHVWSYRKWCCLFFSDFQHELAYASDLIETDIYNNSAWTHRMFYWVNAKDVISKVELADELQFIMDKIQLVPQNISPWTYLRGFQELFHDRLQWDSKVVDFATTFIGDVLSLPIGSPEDLPEIESSYALEFLAYHWGADPCTRDNAVKAYSLLAIKYDPIRKNLWHHKINNLN chain 2: MCQATNGPSRVVTKKHRKFFERHLQLLPSSHQGHDVNRMAIIFYSISGLSIFDVNVSAKYGDHLGWMRKHYIKTVLDDTENTVISGFVGSLVMNIPHATTINLPNTLFALLSMIMLRDYEYFETILDKRSLARFVSKCQRPDRGSFVSCLDYKTNCGSSVDSDDLRFCYIAVAILYICGCRSKEDFDEYIDTEKLLGYIMSQQCYNGAFGAHNEPHSGYTSCALSTLALLSSLEKLSDKFKEDTITWLLHRQVSSHGCMKFESELNASYDQSDDGGFQGRENKFADTCYAFWCLNSLHLLTKDWKMLCQTELVTNYLLDRTQKTLTGGFSKNDEEDADLYHSCLGSAALALIEGKFNGELCIPQEIFNDFSKRCCF	–	–	+	NS	80 µM	< 100 µM	+	Human GGTase can prenylate peptides that lack the polylysine region, whereas the fungal GGTases can not	+
